Data on 18 molecules can be found in US20190300590A1 (PROTAGONIST THERAPEUTICS, published 2019).

Bridges are numbered along the chain shown (N, C = ends). [ ]: non-standard residue; d: D form. Phe(4-CONH2) = NC(=O)c1ccc(C[C@H](N)C(=O)O)cc1; 2Nal = N[C@@H](Cc1ccc2ccccc2c1)C(=O)O; AEF = NCCOc1ccc(C[C@H](N)C(=O)O)cc1; Pen = CC(C)(S)[C@H](N)C(=O)O; αMeK = C[C@](N)(CCCCN)C(=O)O; Abu = CC[C@H](N)C(=O)O

T1: IL23R_huFC (human, UniProt Q5VWK5 24-353)
T1 sequence (looked up): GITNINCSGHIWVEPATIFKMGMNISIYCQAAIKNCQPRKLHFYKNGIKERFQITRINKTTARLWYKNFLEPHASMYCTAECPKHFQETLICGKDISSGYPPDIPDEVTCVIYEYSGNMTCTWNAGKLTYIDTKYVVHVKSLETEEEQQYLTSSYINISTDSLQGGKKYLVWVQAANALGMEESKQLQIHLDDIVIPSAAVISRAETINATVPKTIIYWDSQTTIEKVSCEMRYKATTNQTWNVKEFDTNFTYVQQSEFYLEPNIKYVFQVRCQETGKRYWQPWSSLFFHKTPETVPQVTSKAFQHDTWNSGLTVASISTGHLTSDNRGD

T2: Rat IL-23R_huFC (rat, UniProt F1LX96 39-369)
T2 sequence: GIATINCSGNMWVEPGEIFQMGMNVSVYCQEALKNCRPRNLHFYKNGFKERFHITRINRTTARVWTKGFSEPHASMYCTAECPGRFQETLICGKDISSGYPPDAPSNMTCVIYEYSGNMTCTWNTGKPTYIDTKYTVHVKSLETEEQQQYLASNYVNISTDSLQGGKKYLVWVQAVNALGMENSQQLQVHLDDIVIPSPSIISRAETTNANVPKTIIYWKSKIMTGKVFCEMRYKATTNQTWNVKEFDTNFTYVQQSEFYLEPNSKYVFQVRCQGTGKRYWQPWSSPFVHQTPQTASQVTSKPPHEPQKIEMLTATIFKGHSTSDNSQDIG

B1: Ac-[Pen]-QTWQ-[Pen]-YW-[(D)Asn]-ENG-NH2 (peptide)
peptide: Ac-[Pen]QTWQ[Pen]YW[dN]ENG-NH2
modifications: disulfide 1-6
SMILES: CC(=O)N[C@@H]1C(=O)N[C@@H](CCC(N)=O)C(=O)N[C@@H]([C@@H](C)O)C(=O)N[C@@H](Cc2c[nH]c3ccccc23)C(=O)N[C@@H](CCC(N)=O)C(=O)N[C@H](C(=O)N[C@@H](Cc2ccc(O)cc2)C(=O)N[C@@H](Cc2c[nH]c3ccccc23)C(=O)N[C@H](CC(N)=O)C(=O)N[C@@H](CCC(=O)O)C(=O)N[C@@H](CC(N)=O)C(=O)NCC(N)=O)C(C)(C)SSC1(C)C
B2: gallic acid-[Pen]-QTWQ[Pen]-[Phe(4-OMe)]-[2-Nal]-[α-MeLys]-[Lys(Ac)]-NG-NH2 (peptide)
peptide: XQTWQXFXKKNG
modifications: N-terminal gallic acid; Pen-Pen disulfide; Phe(4-OMe); 2-Nal; α-MeLys; Lys(Ac); NH2
B3: isovaleric acid-[Pen]-QTWQ[Pen]-[Phe(4-OMe)]-[2-Nal]-[α-MeLys]-[Lys(Ac)]-NG-NH2 (peptide)
peptide: XQTWQXFXKKNG
modifications: N-terminal isovaleric acid; Pen-Pen disulfide; Phe(4-OMe); 2-Nal; α-MeLys; Lys(Ac); NH2
B4: succinic acid-[Pen]-QTWQ[Pen]-[Phe(4-OMe)]-[2-Nal]-[α-MeLys]-[Lys(Ac)]-NG-NH2 (peptide)
peptide: XQTWQXFXKKNG
modifications: N-terminal succinic acid; Pen-Pen disulfide; Phe(4-OMe); 2-Nal; α-MeLys; Lys(Ac); NH2
B5: 4-fluorophenylacetic acid-[Pen]-QTWQ-[Pen]-[Phe(4-OMe)]-[2-Nal]-[α-MeLys]-[Lys(Ac)]-NG-NH2 (peptide)
peptide: XQTWQXFXKKNG
modifications: N-terminal 4-fluorophenylacetic acid; Pen-Pen disulfide; Phe(4-OMe); 2-Nal; α-MeLys; Lys(Ac); NH2
B6: glutaric acid-[Pen]-QTWQ[Pen]-[Phe(4-OMe)]-[2-Nal]-[α-MeLys]-[Lys(Ac)]-NG-NH2 (peptide)
peptide: XQTWQXFXKKNG
modifications: N-terminal glutaric acid; Pen-Pen disulfide; Phe(4-OMe); 2-Nal; α-MeLys; Lys(Ac); NH2
B7: 4-methylmorpholine-2,6-dione-[Pen]-QTWQ[Pen]-[Phe(4-OMe)]-[2-Nal]-[α-MeLys]-[Lys(Ac)]-NG-NH2 (peptide)
peptide: XQTWQXFXKKNG
modifications: N-terminal 4-methylmorpholine-2,6-dione; Pen-Pen disulfide; Phe(4-OMe); 2-Nal; α-MeLys; Lys(Ac); NH2

The target of one assay is Rat IL-23R_huFC (rat). The assay is described as follows: rat ELISA vs IL-23. On the technique in general: In an ELISA, binding on a coated surface is turned into a signal by an enzyme label.
As a reminder, the IC50 is the point on the concentration scale where inhibition reaches its midpoint. Low readings indicate higher potency, high ones lower potency. In turn, Ac-[Abu]QTWQC[Phe(4-CONH2)][2Nal][αMeK]K(Ac)NG-NH2 (thioether 1-6) [Ac-Cyclo-[[Abu]-QTWQC]-[Phe(4-CONH2)]-[2-Nal][α-MeLys]-[Lys(Ac)]-NG-NH2] displayed an IC50 of 10 to 25 nM.
Same read-out and setting: then Ac-[Abu]QTWQC[AEF]W[αMeK]ENG-NH2 (thioether 1-6) [Ac-Cyclo-[[Abu]-QTWQC]-[Phe[4-(2-aminoethoxy)]-W-[α-MeLys]-ENG-NH2], with 10 to 25 nM; and Ac-[Abu]QTWQCY[2Nal][αMeK]ENG-NH2 (thioether 1-6) [Ac-Cyclo-[[Abu]-QTWQC]-Y-[2-Nal]-[α-MeLys]-ENG-NH2], with 10 to 25 nM.

Another assay concerns the target T1, IL23R_huFC. The assay is described as follows: IL23-IL23R competitive binding ELISA.
Molecule XQTWQXYWLENG (Ac; Pen-Pen disulfide; hLeu; NH2) [Ac-[Pen]-QTWQ-[Pen]-YW-[hLeu]-ENG-NH2] registered an IC50 of 100 to 1000 nM.
On the same count and under the same terms, then XQTWQXYWLENG (Ac; Pen-Pen disulfide; hLeu; NH2) [Ac-[[Pen]-QTWQ-[Pen]-YW-[hLeu]-ENG-NH2], with 100 to 1000 nM; and B1, with 1000 to 10000 nM.
On the same count and under the same terms, the value for XQTWQXYWKKNG (Ac; Pen-Pen disulfide; α-MeLys; Lys(Ac); NH2) [Ac-[Pen]-QTWQ-[Pen]-YW-[α-MeLys]-[Lys(Ac)]-NG-NH2] was 100 to 1000 nM.
Still for that read-out and setting: then XQTWQXYWXENG (Ac; Pen-Pen disulfide; α-MeOrn; NH2) [Ac-[Pen]-QTWQ-[Pen]-YW-[α-MeOrn]-ENG-NH2], with 100 to 1000 nM; and B2, with 1000 to 10000 nM; and XQTWQXFXKENG (Ac; Pen-Pen disulfide; Phe(4-OMe); 2-Nal; α-MeLys; NH2) [Ac-[Pen]-QTWQ-[Pen]-[Phe(4-OMe)]-[2-Nal]-[α-MeLys]-ENG-NH2], with 25 to 100 nM.

In a further assay the target is T2, Rat IL-23R_huFC. The assay is described as follows: rat IL-23R competitive binding ELISA.
On to B3, for which the IC50 lay in the range of 25 to 100 nM.
Same read-out and setting: the value for B4 was 25 to 100 nM.
For B5, the IC50 lay within 100 to 1000 nM.
Same read-out and setting: the value for B6 was 25 to 100 nM; that for XQTWQXFWKKNG (Ac; Pen-Pen disulfide; Phe(4-OMe); α-MeLys; Lys(Ac); NH2) [Ac-[Pen]-QTWQ-[Pen]-[Phe-(4-OMe)]-W-[α-MeLys]-[Lys(Ac)]-NG-NH2] was 25 to 100 nM; that for B7 was 25 to 100 nM.
On the same count and under the same terms, the value for XQTWQXYWXENG (Ac; Pen-Pen disulfide; α-MeOrn; NH2) [Ac-[Pen]-QTWQ-[Pen]-YW-[α-MeOrn]-ENG-NH2] was 100 to 1000 nM.
Still for that read-out and setting: then XQTWQXFXKKNG (Ac; Pen-Pen disulfide; Phe(4-OMe); 1-Nal; α-MeLys; Lys(Ac); NH2) [Ac-[Pen]-QTWQ-[Pen]-[Phe(4-OMe)]-[1-Nal]-[α-MeLys]-[Lys(Ac)]-NG-NH2], with 100 to 1000 nM.
For XQTWQXFXKENG (Ac; Pen-Pen disulfide; Phe(4-OMe); 2-Nal; α-MeLys; NH2) [Ac-[Pen]-QTWQ-[Pen]-[Phe(4-OMe)]-[2-Nal]-[α-MeLys]-ENG-NH2], the IC50 was in the range of 100 to 1000 nM.
XQTWQXFXKKNG (Ac; Pen-Pen disulfide; Phe[4-(2-aminoethoxy)]; 2-Nal; α-MeLys; Lys(Ac); NH2) [Ac-[Pen]-QTWQ-[Pen]-[Phe[4-(2-aminoethoxy)]-[2-Nal]-[α-MeLys]-[Lys(Ac)]-NG-NH2] yielded an IC50 of 25 to 100 nM.
